How the values were obtained:
[1] = molecular target: recombinant enovin (mature Enovin with NH2-terminal 6x His-tag, expressed from hEVNmat/pRSETB in E. coli BL21(DE3), refolded) (human); test: SPR (BIAcore 3000, 25 °C), enovin immobilised, soluble GFRα3-Fc as analyte; KD calculated as kd/ka
[2] = molecular target: recombinant enovin (mature Enovin with NH2-terminal 6x His-tag, expressed from hEVNmat/pRSETB in E. coli BL21(DE3), refolded) (human); test: SPR (BIAcore 3000, 25 °C), enovin immobilised, soluble GFRα3-Fc as analyte, three concentrations

Kd [1]: 3.1 nM
koff [2]: 0.000508 s⁻¹
kon [2]: 165000 M⁻¹ s⁻¹
B1: soluble GFRα-3 IgG-Fc fusion protein (GFRα-3 amino acids 28 to 371 fused to human IgG1-Fc) (Fc fusion, UniProt O60609 28-371, looked up, not shown: a dimerising Fc or GST)
chain: LAAGDPLPTESRLMNSCLQARRKCQADPTCSAAYHHLDSCTSSISTPLPSEEPSVPADCLEAAQQLRNSSLIGCMCHRRMKNQVACLDIYWTVHRARSLGNYELDVSPYEDTVTSKPWKMNLSKLNMLKPDSDLCLKFAMLCTLNDKCDRLRKAYGEACSGPHCQRHVCLRQLLTFFEKAAEPHAQGLLLCPCAPNDRGCGERRRNTIAPNCALPPVAPNCLELRRLCFSDPLCRSRLVDFQTHCHPMDILGTCATEQSRCLRAYLGLIGTAMTPNFVSNVNTSVALSCTCRGSGNLQEECEMLEGFFSHNPCLTEAIAAKMRFHSQLFSQDWPHPTFAVMAHQ

— patent US7067473
